{"source": "patent US20020111476A1", "about": "(published 2002)", "proteins": {"B1": {"name": "Mouse cysteine rich soluble protein 2 (C2) (ligand)", "chain": "DETIEIIVENKVKELLANPANYPSTVTKTLSCTSVKTMNRWASCPAGMTATGCACGFACGSWEIQSGDTCNCLCLLVDWTTARCCQLS", "notes": "the copy number is not fixed; also called mC2; mouse C2"}}, "target": "the molecule itself", "test": "preliminary analysis of molecular form; method not detailed"}
{"protein": "B1", "values": [{"measurement": "binding result", "result": "binds"}]}
